Results taken from patent US20150057236.

B1: human Sirt3 (protein)
chain: ISFSVGASSVVGSGGSSDKGKLSLQDVAELIRARACQRVVVMVGAGISTPSGIPDFRSPGSGLYSNLQQYDLPYPEAIFELPFFFHNPKPFFTLAKELYPGNYKPNVTHYFLRLLHDKGLLLRLYTQNIDGLERVSGIPASKLVEAHGTFASATCTVCQRPFPGEDIRADVMADRVPRCPVCTGVVKPDIVFFGEPLPQRFLLHVVDFPMADLLLILGTSLEVEPFASLTEAVRSSVPRLLINRDLVGPLAWHPRSRDVAQLGDVVHGVESLVELLGWTEEMRDLVQRETGKLDGPDK
B2: human Sirt7 (protein)
chain: MAAGGLSRSERKAAERVRRLREEQQRERLRQVSRILRKAAAERSAEEGRLLAESADLVTELQGRSRRREGLKRRQEEVCDDPEELRGKVRELASAVRNAKYLVVYTGAGISTAASIPDYRGPNGVWTLLQKGRSVSAADLSEAEPTLTHMSITRLHEQKLVQHVVSQNCDGLHLRSGLPRTAISELHGNMYIEVCTSCVPNREYVRVFDVTERTALHRHQTGRTCHKCGTQLRDTIVHFGERGTLGQPLNWEAATEAASRADTILCLGSSLKVLKKYPRLWCMTKPPSRRPKLYIVNLQWTPKDDWAALKLHGKCDDVMRLLMAELGLEIPAYSRWQDPIFSLATPLRAGEEGSHSRKSLCRSREEAPPGDRGAPLSSAPILGGWFGRGCTKRTKRKKVT
B3: human Sirt1 (protein)
chain: MADEAALALQPGGSPSAAGADREAASSPAGEPLRKRPRRDGPGLERSPGEPGGAAPEREVPAAARGCPGAAAAALWREAEAEAAAAGGEQEAQATAAAGEGDNGPGLQGPSREPPLADNLYDEDDDDEGEEEEEAAAAAIGYRDNLLFGDEIITNGFHSCESDEEDRASHASSSDWTPRPRIGPYTFVQQHLMIGTDPRTILKDLLPETIPPPELDDMTLWQIVINILSEPPKRKKRKDINTIEDAVKLLQECKKIIVLTGAGVSVSCGIPDFRSRDGIYARLAVDFPDLPDPQAMFDIEYFRKDPRPFFKFAKEIYPGQFQPSLCHKFIALSDKEGKLLRNYTQNIDTLEQVAGIQRIIQCHGSFATASCLICKYKVDCEAVRGDIFNQVVPRCPRCPADEPLAIMKPEIVFFGENLPEQFHRAMKYDKDEVDLLIVIGSSLKVRPVALIPSSIPHEVPQILINREPLPHLHFDVELLGDCDVIINELCHRLGGEYAKLCCNPVKLSEITEKPPRTQKELAYLSELPPTPLHVSEDSSSPERTSPPDSSVIVTLLDQAAKSNDDLDVSESKGCMEEKPQEVQTSRNVESIAEQMENPDLKNVGSSTGEKNERTSVAGTVRKCWPNRVAKEQISRRLDGNQYLFLPPNRYIFHGAEVYSDSEDDVLSSSSCGSNSDSGTCQSPSLEEPMEDESEIEEFYNGLEDEPDVPERAGGAGFGTDGDDQEAINEAISVKQEVTDMNYPSNKS
B4: human Sirt2 (protein)
chain: MAEPDPSHPLETQAGKVQEAQDSDSDSEGGAAGGEADMDFLRNLFSQTLSLGSQKERLLDELTLEGVARYMQSERCRRVICLVGAGISTSAGIPDFRSPSTGLYDNLEKYHLPYPEAIFEISYFKKHPEPFFALAKELYPGQFKPTICHYFMRLLKDKGLLLRCYTQNIDTLERIAGLEQEDLVEAHGTFYTSHCVSASCRHEYPLSWMKEKIFSEVTPKCEDCQSLVKPDIVFFGESLPARFFSCMQSDFLKVDLLLVMGTSLQVQPFASLISKAPLSTPRLLINKEKAGQSDPFLGMIMGLGGGMDFDSKKAYRDVAWLGECDQGCLALAELLGWKKELEDLVRREHASIDAQSGAGVPNPSTSASPKKSPPPAKDEARTTEREKPQ

Protein	Km for acetyl peptide (H3K9 acetyl peptide)	kcat (H3K9 acetyl peptide)	kcat/Km (s^-1M^-1) (H3K9 acetyl peptide)	hydrolysis of acyl peptide (LC-MS) (H3K9 acetyl peptide)	hydrolysis of acyl peptide (LC-MS) (H3K9 succinyl peptide)	hydrolysis of acyl peptide (LC-MS) (H3K9 malonyl peptide)
B1	50 µM	0.012 s⁻¹	240 s^-1M^-1			
B2				Sirt6 and Sirt7 have no detectable activity on acetyl, malonyl, or succinyl peptides under the conditions tested	Sirt6 and Sirt7 have no detectable activity on acetyl, malonyl, or succinyl peptides under the conditions tested	Sirt6 and Sirt7 have no detectable activity on acetyl, malonyl, or succinyl peptides under the conditions tested
B3	38 µM	0.039 s⁻¹	1000 s^-1M^-1	Sirt1 catalyzed the hydrolysis of the acetyl peptide	but not the malonyl and succinyl peptides	but not the malonyl and succinyl peptides
B4	190 µM	0.03 s⁻¹	160 s^-1M^-1			
